Literature values in publication PMC11820047.
Read-outs that look alike come from different tables or passages of the source.

Experiments:
EGFR (Homo sapiens) [1] = molecular target: EGFR (Homo sapiens) (UniProt P00533)
EGFR (Homo sapiens) [2] = molecular target: EGFR (Homo sapiens) (UniProt P00533); remark: listed apart in the source

Substance	Kd (EGFR (Homo sapiens) [1]) [nM]	Kd (EGFR (Homo sapiens) [2]) [nM]
EGF (from UniProt P01133)	2	
GE11		22
